Where a chain is given by its changes, count along the chain named.
B1: B1-#176 (antibody, V domains shown)
VH: QSLEESEGGLVKPGGTLTLTCTASGFSFSSSYCMCWVRQAPGKGLELIACIYTDSSGATYYASWAKGRFTISKSSSTTITLQMTSLTAADTATYFCARGWDYEDPGYTDTTYFSLWGPGTLVTVSS
VL: ELDLTQTPSSVEAAVGGTVTIKCQASQTIYTNLAWYQQKPGQPPNLLIYAASTLASGVSSRFKGSGSGTEFTLTISDLECADAATYYCQSYYGSSTTGNGFGGGTEVEIK
notes: recombinant rabbit IgG
B2: B1-#173-2 (antibody, V domains shown)
VH: QSVEESGGDLVKPGASLTLTCTASGFDFSSNAYLCWVRQAPGKGLEWIGCIYDGTSGDTYYANWAKGRFTISRSSSTTVTLQMTSLTAADTATYFCARDTRSSNYYFNLWGPGTLVTISS
VL: ELVLTQTPSSTSAAVGGTVTINCQASQSVDNNKQLSWYQQKPGQPPKQLIYSASKLASGVPSRFKGSGSGTQFTLTISDLECDDAATYYCAGYYYSGSATDAWAFGGATEVEIN
notes: recombinant rabbit IgG
B3: B1-#3 (antibody, V domains shown)
VH: QSLEESEGDLVKPEGSLTLTCKASGFDFSSDAMCWVRQAPGKGLEWIGCIYNGDEITDHASWAKGRFTISKTSPTTVTLQMTSLTVADTATYFCARAVYSDGGAGYPYMYGMDLWGPGTLVTVSS
VL: ELDMTQTPASVEAAVGGTVTIKCQASQNIYSYLVWYQQKPGQPPKLLISKASTLASGVSSRFKGSGSGTEFTLTINDLECADAATYYCQTNYFSSTSHFGVFTFGGGTELEIK
notes: recombinant rabbit IgG
B4: B1-#41-1 (antibody, V domains shown)
VH: QSVKESGGDLVKPGASLTLTCTASGFSFSSSYWICWVRQAPGKGLEWIACIYAGSSGSTYYASWAKGRFTISKTSSTTVTLQMTSLTAADTATYFCARSTSGSYGAGLGLWGPGTLVTISS
VL: ELDMTQTASPVSGAVGGTVTIKCQASQNIYNNIGWYQQKPGQPPNLLIYGPSYLASGVPSRFKGSRSGTEYTLTISDLECADAATYYCQSDDWMSISPDIVFGGGTEVEIK
notes: recombinant rabbit IgG
B5: B1-#83 (antibody, V domains shown)
VH: EQSLKESGGDLVKPGASLTLTCTASAFSFSSSSWICWVRQAPGKGLEWIACIYGGSVATTYYATWAKGRFTISKPSSTTVTLQMTSLPAADTATYFCATNTDSSRSYYNLWGPGTLVTVSS
VL: ELDLTQTPSSVEVAVGGAVTIKCQASHIITNYLAWYQQRPGQPPKLLIYDASKLASGVPSRFKGSGSGTEFTLTISDLECADAATYYCQNYLYFSSGDWNVFGGGTEVVVK
notes: recombinant rabbit IgG
B6: B1-#160 (antibody, V domains shown)
VH: QEQLVESGGGLVQPEGSLTLTCKASGIDFSSGYWICWVRQAPGKGLELIACIFTSSGTTYYASWAKGRFTISKTSSTTVTLQMTSLTAADTATYFCARDIYSYGMDLWGPGTLVTVSS
VL: ELDLTQTPASVSAAVGGTVTIKCQASQSISSSYLAWYQQKPGQPPKLLIYSASSTASGVPSRFKGSGSGTQFTLTISDLECADAATYYCQSTYISSSKYGAVFGGGTELEIK
notes: recombinant rabbit IgG
B7: B1-#38 (antibody, V domains shown)
VH: EQSVEESEGGLVQPEGSLTLTCTASGFSFSNDYWICWVRQAPGKGLEWIGCGHIGSFRTTYYASWAKGRFSISKTSSTTVTLQMTSLTGADTATYFCARSPYDDGYGGFTFNLWGPGTLVTISS
VL: ELDMTQTPSSVEAAVGGTVTVKCQVSQSIGNAIAWYQQKPGQPPKLLIYKASTLASGVPSRFKGSGSGTEFTLTISDLECADAATYYCQNYYYSNTNSFGGGTEVVVK
notes: recombinant rabbit IgG
B8: B1-#224 (antibody, V domains shown)
VH: B6 VH with Q1E, E2Q, Q3S, L4V, V5E, K23T, Y33A, S55T, T58F, V116I
VL: ELVLTQTPSSVSEPVGGTVTIKCQASQSISSSYLAWYQQKPGQPPKFLIYSASTLASGVPSRFKGSGSGTEFTLTISDLECADAATYYCQSTYISSSNYGAAFGGGTEVEIK
notes: recombinant rabbit IgG
B9: B1-#76 (antibody, V domains shown)
VH: EQSVEESGGGLVQPEGSLTLTCTASGFSFSGSCDMSWVRQAPGKGLEWIACIVLSNGNTYYAGWAQGRFTISKISSTTVTLEMTSLTAADTATYFCARERYPGAFSSGLDLWGQGTLVTVSS
VL: ELDLTQTPSPVSAAVGGTVTINCQASQIVANGRLAWYQQKPGQPPKLLIYATSTLASGVPSRFKGSGSGTQFTLTINGVQCDDAATYYCQGAYSSGDVRTFGGGTEVVVK
notes: recombinant rabbit IgG
B10: B1-#115 (antibody, V domains shown)
VH: EQSVKESGGGLVQPEGSLTLTCTASGFSFSSSYWICWVRQAPGKGLEWIGCIATGTGSTYYANWVNGRFTMSKPSSTTVTLQMTTLTAADTATYFCARGGGYWSFSLWGPGTLVTISS
VL: ELVMTQTPSSVEAAVGGTVTNKCQASEDIYSNLAWYQQKPGQPPKLLIYGATTLASGVPSRFKGSGSGTEFTLTISDLECADAATYYCQAESNDVWAFGGGTEVVVK
notes: recombinant rabbit IgG
B11: B1-#25 (antibody, V domains shown)
VH: EQSVKESGGGLVQPEGSLTLTCKVSGIDFNYYNYYYMCWVRQAPGKGLEWIGCMSTASANIYLASWAKGRFTISEASSTTVTLQMTSLTAADTATYFCAKSHGGDGGYGVVLWGPGTLVTISS
VL: ELDLTQTPFSVSAAVGGTVTIKCQASETISNRLAWYQQKPGQPPKLLIYSASTLESGVPSRFKGSGSGTEFTLTISDLECADAATYYCQSIRSSSGIVHPNTFGGGTEVEIK
notes: recombinant rabbit IgG
B12: B1-#98 (antibody, V domains shown)
VH: EQSLEESGGDLVKPEGSLTLTCTASGFSFSSSYWICWVRQAPGKGLEWIACVATGSGTTDYASWAKGRFTMSKTSSTTVTLQMTSLTVADTATYFCARIGAFYSFRLWGPGTLVTISS
VL: ELDLTQTPGSVEAAVGGTVTIKCQAGQSIYNYLSWYQQKPGQPPKLLIYSASTLESGVPPRFSGSGSGTEFTLTISDLECADAATYSCQNNYGIGSNYGPGFGGGTEVEIK
notes: recombinant rabbit IgG
B13: B1-#19 (antibody, V domains shown)
VH: EQSVEESGGGLVKPEGSLTLTCKASGLDFSSSYWSCWVRQTPGRGLEWIGCIDVGSSGGSYYASWARGRFTVSKGSSTTVTLQMTSLTAADTATYFCASTTTNVFGYDLWGPGTLVTVSS
VL: ELDLTQTPASVSEPVGGTVTIKCQASQNIYNNLAWYQQKPGQPPKLLIYYASTLASGVPPRFSGSGSGTEYTLTISDLECDDAATYYCQNNAGIYGGYGHGFGGGTEVVVK
notes: recombinant rabbit IgG
B14: B1-#226 (antibody, V domains shown)
VH: QEQLVESGGGLVQPEGSLTLTCTASGFSFSSRQYISWVRRAPGKGLEWIGAIVTVNNKVHYANWAKGRFTISEASSTTVTLQMTSLTAADTATYFCARWRTFGLWGPGTLVTVSS
VL: ELVLTQTPSSKSVAVGDTVTINCQASENVYSNNYTSWFQQKPGQPPKQLLYYAAYRASGVPSRFKGSGSGTEFTLSISDVVCDDAATYYCSGHKDYSDDGSTFGGGTEVVVK
notes: recombinant rabbit IgG
B15: B1-#10 (antibody, V domains shown)
VH: EQSVEESGGGLVKPEGSLTLTCKASGLDFSSSYWICWVRQAPGKGLEWIACIDTGSSGSTYYASWAKGRFTVSKTSSTTVSLQMTSLTAADTATYFCASTPNSLGYDLWGPGTLVTISS
VL: ELDLTQTPASVSAAVGGTVTIKCQASQNIVSNLAWYQQKPGQRPKLLIYYASTLASGVPSRFKGSGSGTEYTLTISDLECADAATYYCQNNAGIYGNYGHGFGGGTELEIK
notes: recombinant rabbit IgG
B16: B1-#128 (antibody, V domains shown)
VH: RAVGKESGGDLVTLGGSLKLSCKASGIDLSNFYYMCWVRQAPGKGLEWIGCVASDSSRTHYATWPKGRFTISKTSSTTVTLQMTSLTAADTATYFCARGSGASTNGVWWVMGDGMDLWGPGTLVTVSS
VL: ELDMTQTPSSVSAAVGGTVTIKCQASQSISSYLSWYQQKPGQPPKRLIYKASTLPSGVPPRFKGSGSGTEFTLTISDLECADAATYYCQNNYHSGSSNGGGFAFGGGTQVEIK
notes: recombinant rabbit IgG
B17: B1-#125 (antibody, V domains shown)
VH: EQSLEESGGGLVQPEGSLTLTCTASGFSFTKNYYMCWVRQAPGKGLEWIGCIYAGSTNTFYASWAKGRFTISKASSTTVDLKMTSLTVADTATYFCARDFVSYLNLWGPGTLVTVSS
VL: ELDLTQTPSSSSAAVGGTVTINCQASQSVYNKNYLSWFQQKPGQPPKLLIYYASTLASGVPSRFKGSGSGTEFTLTISDVVCDDAATYYCAAYKGVSDDGISFGGGTEVEIK
notes: recombinant rabbit IgG
B18: B1-#7 (antibody, V domains shown)
VH: EQSLEESGGGLVKPGASLTVTCAVSGFSLNSYAITWVRQAPGKGLEYIGYIDTGASITDYASWAKGRFTISKTSSTTVTLEMTSLTDADTATYFCARGFSMFKLWGPGTLVTISS
VL: ELDLTQTPSSVSAAVGGTVTISCQASQSVYGNNRLAWYHQKPGQPPKRLIYLASTLDSGVPSRFKGAGSGTQFTLTISDLECDDAATYYCAGGYAGNFNAFGGGTEVEIK
notes: recombinant rabbit IgG
B19: B1-#18 (antibody, V domains shown)
VH: EQSVKESGGGLVKPGGTLTLTCIVSGFSLSRYAVTWVRQAPGKGPEWIGYIDTSSGNKDYANWVNGRFTISKTSSTTVTLQMTSLTAADTATYFCARGFSMFKLWGPGTLVTISS
VL: ELVMTQTPSSVSAAVGGTVTISCQASQSVYNNNNLAWYQQKPGQPPKRLIYSASTLDSGVPSRFSGSGSGTQFTLTISDLECDDAATYYCAGGYTYNINIFGGGTEVEIK
notes: recombinant rabbit IgG
B20: B1-#196-2 (antibody, V domains shown)
VH: B17 VH with E1Q, Q2E, S3Q, E5V, A24D
VL: ELDMTQTPSSTSAAVGGTVTIKCQASQSVYNNNQLSWFQQKPGQPPKRLIYGASTLESGVPSRFSGSGSGTQFTLTISDLECDDAATYYCQGAVSSDYYPFGGGTEVEIK
notes: recombinant rabbit IgG
B21: B1-#110 (antibody, V domains shown)
VH: QSLEESGGDLVKPEGSLTLTCTASGFSFSSSYWICWVRQAPGKGLEWIGCIYAGNSANTYYASWAKGRFTISKTSSTTVTLQLTSLTAADTATYFCASRNGGAPDGLNLWGPGTLVTISS
VL: ELDLTQTPASVEAAVGGTVTIKCQASLNINSWLAWYQQKPGQPPKLLISYTSSLASGVPSRFKGSGSGTEYTLTINDLECADAATYYCQTTYFGTNGGGFGGGTEVEIK
notes: recombinant rabbit IgG

These binders were tested against T1, recombinant LILRB1 (human, UniProt Q8NHL6 24-461) (assay: ELISA, coated recombinant LILRB1, antibody titration;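 further: serially diluted anti-LILRB1 antibodies incubated 60 min at 37 °C on plates coated with 50 ng/well recombinant protein, TMB colorimetric development read as absorbance at 450 nm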).
T1 construct: LILRB1-Fc proteins were also made; also called LILRB1 recombinant proteins
T1 sequence (Q8NHL6 24-461 limits assumed): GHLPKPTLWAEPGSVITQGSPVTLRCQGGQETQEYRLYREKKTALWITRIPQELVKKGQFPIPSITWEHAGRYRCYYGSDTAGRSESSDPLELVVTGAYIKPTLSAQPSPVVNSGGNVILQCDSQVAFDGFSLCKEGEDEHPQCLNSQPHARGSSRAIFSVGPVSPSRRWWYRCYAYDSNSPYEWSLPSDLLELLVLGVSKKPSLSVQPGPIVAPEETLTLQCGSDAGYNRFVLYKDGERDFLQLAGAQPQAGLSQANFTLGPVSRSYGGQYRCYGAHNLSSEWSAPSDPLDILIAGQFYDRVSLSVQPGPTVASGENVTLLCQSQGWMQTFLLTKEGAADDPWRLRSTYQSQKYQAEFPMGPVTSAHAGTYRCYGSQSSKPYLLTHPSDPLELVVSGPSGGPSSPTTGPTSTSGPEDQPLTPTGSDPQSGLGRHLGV
Method: ELISA. LILRB1 recombinant proteins (50 ng/well, 100 μL per well) were coated on Corning 96-well ELISA plates at 37° C. for 4 hrs. Plates were blocked for 2 hrs at 37° C. with 5% non-fat milk. After washing with PBST, 100 μL of serial diluted anti-LILRB1 antibodies were added and incubated for 60 min at 37° C. […] Plates were washed again with PBST for another 5 times, then the immunoreactions were developed with TMB substrates (Sigma, Cat #T0440) and stopped by the addition of 2 M H_2SO_4 before the plate was read at 450 nm.

Binder	EC50 [µg/mL]
B1	0.00224
B2	0.00656
B3	0.0119
B4	0.0944
B5	0.0155
B6	0.0285
B7	0.181
B8	0.0109
B9	0.0284
B10	0.052
B11	0.0132
B12	0.038
B13	0.0196
B14	0.00826
B15	0.0209
B16	0.04
B17	0.0076
B18	0.0159
B19	0.0182
B20	0.151
B21	0.0178

These binders were tested against T1, recombinant LILRB1 (assay: BLI (Octet RED96), antibody on biosensor, recombinant LILRB1 in solution;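 further: Background-subtracted sensorgrams fitted with a one-to-one binding model, KD taken as koff over kon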).
Method: Following a short baseline in kinetics buffer for 20 s, the loaded biosensors were exposed to solutions of recombinant LILRB1 in a range of concentrations (0-500 nM). After background was subtracted, data was fit to a 1:1 binding model to extract an association rate ($kon$) and dissociation rate ($koff$). The KD was calculated using the ratio $koff/kon$. […] All experiments were performed with shaking at 1,000 rpm. All raw data was processed using ForteBio Octet Data Analysis Software 9.0.

Binder	Kd [nM]	koff [s⁻¹]	kon [M⁻¹ s⁻¹]
B1	0.619	5.59e-05	90300
B2	1.37	0.000262	192000
B3	0.505	5.63e-05	112000
B4	15.8	0.00506	320000
